Reference: the supplement of paper PMC10567573

B1: RAB11B (parent)
chain: AVPTDEARAFAEKNNLSFIETSAL

Variants of: B1
Experiment: protein stability index of a GFP-peptide fusion (GPS, HEK-293T) (PSI 1-6); higher = more stable
Settings: c terminus: a fixed tail appended
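Further: lentivirally expressed fusions sorted by FACS into six bins by GFP to DsRed ratio, PSI derived from sequencing read proportions per bin multiplied by bin number.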

| Variant | protein stability index |
| --- | --- |
| AVPTDEWRAFAEKNNLSFIETSAL | 2.58 |
| AVPTDEPRAFAEKNNLSFIETSAL | 2.86 |
| AVPTDEMRAFAEKNNLSFIETSAL | 2.27 |
| AVPTDEVRAFAEKNNLSFIETSAL | 2.7 |
| AVPTDEYRAFAEKNNLSFIETSAL | 2.94 |
| AVPTDEGRAFAEKNNLSFIETSAL | 3.14 |
| AVPTDECRAFAEKNNLSFIETSAL | 2.47 |
| AVPTDEKRAFAEKNNLSFIETSAL | 2.5 |
| AVPTDEFRAFAEKNNLSFIETSAL | 1.98 |
| AVPTDENRAFAEKNNLSFIETSAL | 3.1 |
| AVPTDESRAFAEKNNLSFIETSAL | 2.79 |
| AVPTDEQRAFAEKNNLSFIETSAL | 3.46 |
| AVPTDETRAFAEKNNLSFIETSAL | 3.17 |
| AVPTDERRAFAEKNNLSFIETSAL | 2.6 |
| AVPTDEERAFAEKNNLSFIETSAL | 2.92 |
| AVPTDEDRAFAEKNNLSFIETSAL | 4.09 |
| AVPTDELRAFAEKNNLSFIETSAL | 2.16 |
| AVPTDEIRAFAEKNNLSFIETSAL | 2.39 |
| AVPTHEARAFAEKNNLSFIETSAL | 2.61 |
| AVPTSEARAFAEKNNLSFIETSAL | 2.33 |
| AVPTVEARAFAEKNNLSFIETSAL | 1.99 |
| AVPTEEARAFAEKNNLSFIETSAL | 2.82 |
| AVPTNEARAFAEKNNLSFIETSAL | 1.92 |
| AVPTIEARAFAEKNNLSFIETSAL | 2.15 |

| Variant | protein stability index |
| --- | --- |
| AVPTMEARAFAEKNNLSFIETSAL | 2.07 |
| AVPTKEARAFAEKNNLSFIETSAL | 1.41 |
| AVPTCEARAFAEKNNLSFIETSAL | 2.82 |
| AVPTPEARAFAEKNNLSFIETSAL | 1.89 |
| AVPTWEARAFAEKNNLSFIETSAL | 1.38 |
| AVPTTEARAFAEKNNLSFIETSAL | 2.13 |
| AVPTAEARAFAEKNNLSFIETSAL | 2.31 |
| AVPTREARAFAEKNNLSFIETSAL | 2.07 |
| AVPTYEARAFAEKNNLSFIETSAL | 2.08 |
| AVPTQEARAFAEKNNLSFIETSAL | 2.42 |
| AVPTFEARAFAEKNNLSFIETSAL | 2.17 |
| AVPTLEARAFAEKNNLSFIETSAL | 2.46 |
| AVPTGEARAFAEKNNLSFIETSAL | 2.31 |
| AVYTDEARAFAEKNNLSFIETSAL | 2.55 |
| AVDTDEARAFAEKNNLSFIETSAL | 3.28 |
| AVMTDEARAFAEKNNLSFIETSAL | 2.43 |
| AVRTDEARAFAEKNNLSFIETSAL | 2.1 |
| AVNTDEARAFAEKNNLSFIETSAL | 3.27 |
| AVLTDEARAFAEKNNLSFIETSAL | 2.28 |
| AVETDEARAFAEKNNLSFIETSAL | 3.33 |
| AVVTDEARAFAEKNNLSFIETSAL | 3.05 |
| AVTTDEARAFAEKNNLSFIETSAL | 3.17 |
| AVITDEARAFAEKNNLSFIETSAL | 2.63 |
| AVATDEARAFAEKNNLSFIETSAL | 2.93 |

| Variant | protein stability index |
| --- | --- |
| AVQTDEARAFAEKNNLSFIETSAL | 3.16 |
| AVGTDEARAFAEKNNLSFIETSAL | 2.92 |
| AVCTDEARAFAEKNNLSFIETSAL | 2.77 |
| AVSTDEARAFAEKNNLSFIETSAL | 2.57 |
| AVWTDEARAFAEKNNLSFIETSAL | 2.91 |
| AVHTDEARAFAEKNNLSFIETSAL | 2.33 |
| AVKTDEARAFAEKNNLSFIETSAL | 2.44 |
| AVFTDEARAFAEKNNLSFIETSAL | 1.96 |
| AVPTDEARALAEKNNLSFIETSAL | 3.19 |
| AVPTDEARAVAEKNNLSFIETSAL | 3.41 |
| AVPTDEARAQAEKNNLSFIETSAL | 3.45 |
| AVPTDEARAPAEKNNLSFIETSAL | 2.73 |
| AVPTDEARANAEKNNLSFIETSAL | 3.25 |
| AVPTDEARADAEKNNLSFIETSAL | 4.06 |
| AVPTDEARAEAEKNNLSFIETSAL | 4.11 |
| AVPTDEARARAEKNNLSFIETSAL | 2.74 |
| AVPTDEARAKAEKNNLSFIETSAL | 2.89 |
| AVPTDEARAMAEKNNLSFIETSAL | 2.9 |
| AVPTDEARAIAEKNNLSFIETSAL | 3.33 |
| AVPTDEARAAAEKNNLSFIETSAL | 3.38 |
| AVPTDEARATAEKNNLSFIETSAL | 3.78 |
| AVPTDEARASAEKNNLSFIETSAL | 3.28 |
| AVPTDEARAYAEKNNLSFIETSAL | 3.2 |
| AVPTDEARACAEKNNLSFIETSAL | 3.1 |

| Variant | protein stability index |
| --- | --- |
| AVPTDEARAHAEKNNLSFIETSAL | 3.74 |
| AVPTDEARAGAEKNNLSFIETSAL | 3.12 |
| AVPTDEARAWAEKNNLSFIETSAL | 2.34 |
| AVPTDNARAFAEKNNLSFIETSAL | 2.25 |
| AVPTDRARAFAEKNNLSFIETSAL | 1.86 |
| AVPTDQARAFAEKNNLSFIETSAL | 2.24 |
| AVPTDPARAFAEKNNLSFIETSAL | 2.93 |
| AVPTDAARAFAEKNNLSFIETSAL | 2.45 |
| AVPTDIARAFAEKNNLSFIETSAL | 2.71 |
| AVPTDTARAFAEKNNLSFIETSAL | 2 |
| AVPTDSARAFAEKNNLSFIETSAL | 2.2 |
| AVPTDYARAFAEKNNLSFIETSAL | 1.67 |
| AVPTDFARAFAEKNNLSFIETSAL | 1.66 |
| AVPTDLARAFAEKNNLSFIETSAL | 2.32 |
| AVPTDWARAFAEKNNLSFIETSAL | 2.04 |
| AVPTDVARAFAEKNNLSFIETSAL | 2.08 |
| AVPTDGARAFAEKNNLSFIETSAL | 2.58 |
| AVPTDCARAFAEKNNLSFIETSAL | 2.46 |
| AVPTDMARAFAEKNNLSFIETSAL | 2.19 |
| AVPTDKARAFAEKNNLSFIETSAL | 2.04 |
| AVPTDHARAFAEKNNLSFIETSAL | 2.61 |
| AVPTDDARAFAEKNNLSFIETSAL | 2.95 |
